Experimental data: the supplement of paper PMC10126150
± gives the standard deviation of the averaged measurements.

Test system: ATP
Assay: switch fluorescence ratio, 500 uM ATP over buffer (Cy3 cluster intensity, sum of 5 cycles each) (fold (ratio)); higher = stronger signal-on switching upon ATP binding; sequences stand for … in TCGTCGGCAGCGTCAGATGTGTATAAGAGACAGTTTTTTTTTTTTTTTTTTTTTTTTT…TC
Details: aptamer strand: ATP DNA aptamer (quencher-CACCTGGGGGAGTATTGCGGAGGAAGG + anchor), 100 nM annealed; ATP concentration: 500 uM
In short: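 After annealing to 100 nM quencher-labelled ATP aptamer, Cy3-labelled switching-strand clusters on a modified Illumina MiSeq flow-cell were imaged in selection buffer. A second image followed after 15 min with 500 uM ATP at 22 °C, and five such buffer/ATP cycles were done, each separated by NaOH stripping and re-annealing. The fluorescence ratio, averaged per switch-domain sequence, is summed target-cycle over summed buffer-cycle Cy3 intensity per cluster, with clusters outside 100-1000 RFU excluded.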
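Note: ATP exposure 15 min at 22 °C before imaging.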

Sequence: CGACCAGATA
- switch fluorescence ratio: 1.078 ± 0.0037

Sequence: CGACCATTAA
- switch fluorescence ratio: 1.264 ± 0.0043

Sequence: CGACCCTGGA
- switch fluorescence ratio: 1.105 ± 0.01

Sequence: CGACCTTGGC
- switch fluorescence ratio: 1.02 ± 0.1

Sequence: CGACGAATAG
- switch fluorescence ratio: 1.29 ± 0.063

Sequence: CGACGACAGG
- switch fluorescence ratio: 1.35 ± 0.024

Sequence: CGACGTATTG
- switch fluorescence ratio: 1.02 ± 0.03

Sequence: CGACGTTAGT
- switch fluorescence ratio: 0.995 ± 0.025

Sequence: CGACTAAAAT
- switch fluorescence ratio: 1.013 ± 0.0066

Sequence: CGACTATCGC
- switch fluorescence ratio: 1.12 ± 0.06

Sequence: CGACTGCAGT
- switch fluorescence ratio: 1.19 ± 0.014

Sequence: CGACTGGCTG
- switch fluorescence ratio: 1.01 ± 0.049

Sequence: CGAGAACTGG
- switch fluorescence ratio: 1.09 ± 0.14

Sequence: CGAGAAGTTC
- switch fluorescence ratio: 1.02 ± 0.091

Sequence: CGAGACAGGA
- switch fluorescence ratio: 1.007 ± 0.0017

Sequence: CGAGAGGTGG
- switch fluorescence ratio: 1.04 ± 0.055

Sequence: CGAGATTGGT
- switch fluorescence ratio: 0.973 ± 0.016

Sequence: CGAGCATTGA
- switch fluorescence ratio: 1.12 ± 0.012

Sequence: CGAGCATTGT
- switch fluorescence ratio: 1.16 ± 0.031

Sequence: CGAGCATTTA
- switch fluorescence ratio: 1.325 ± 0.012

Sequence: CGAGCGGCTA
- switch fluorescence ratio: 1.016 ± 0.0013

Sequence: CGAGCGGTTG
- switch fluorescence ratio: 0.999 ± 0.013

Sequence: CGAGCTCCAT
- switch fluorescence ratio: 1.015 ± 0.0054

Sequence: CGAGGAAAGG
- switch fluorescence ratio: 0.9865 ± 0.0089

Sequence: CGAGGAAATG
- switch fluorescence ratio: 1.06 ± 0.011

Sequence: CGAGGCAAGT
- switch fluorescence ratio: 5.07 ± 1.3

Sequence: CGAGGCTCGT
- switch fluorescence ratio: 1.02 ± 0.065

Sequence: CGAGGGATGT
- switch fluorescence ratio: 0.982 ± 0.034

Sequence: CGAGGGATTT
- switch fluorescence ratio: 1.05 ± 0.013

Sequence: CGAGGGCTAG
- switch fluorescence ratio: 1.04 ± 0.074

Sequence: CGAGGGCTGA
- switch fluorescence ratio: 1.02 ± 0.015

Sequence: CGAGGGGACG
- switch fluorescence ratio: 1 ± 0.013

Sequence: CGAGGGGAGT
- switch fluorescence ratio: 1.006 ± 0.0011

Sequence: CGAGGGGGGA
- switch fluorescence ratio: 0.996 ± 0.028

Sequence: CGAGGGGTAG
- switch fluorescence ratio: 0.996 ± 0.026

Sequence: CGAGGGTAAC
- switch fluorescence ratio: 0.983 ± 0.029

Sequence: CGAGGGTACG
- switch fluorescence ratio: 1 ± 0.032

Sequence: CGAGGTTGAC
- switch fluorescence ratio: 1.0385 ± 0.00054

Sequence: CGAGTAAACG
- switch fluorescence ratio: 1.02 ± 0.017

Sequence: CGAGTAAATG
- switch fluorescence ratio: 1.01 ± 0.021

Sequence: CGAGTACTGG
- switch fluorescence ratio: 1.03 ± 0.016

Sequence: CGAGTATTGG
- switch fluorescence ratio: 0.974 ± 0.018

Sequence: CGAGTCCCCT
- switch fluorescence ratio: 1.04 ± 0.033

Sequence: CGAGTGGGGG
- switch fluorescence ratio: 0.987 ± 0.029

Sequence: CGAGTGTGTG
- switch fluorescence ratio: 0.97 ± 0.024

Sequence: CGAGTTACGG
- switch fluorescence ratio: 1.01 ± 0.019

Sequence: CGAGTTAGGC
- switch fluorescence ratio: 1.03 ± 0.063

Sequence: CGAGTTGATC
- switch fluorescence ratio: 0.973 ± 0.028

Sequence: CGAGTTTG
- switch fluorescence ratio: 0.98 ± 0.056

Sequence: CGAGTTTTTG
- switch fluorescence ratio: 0.979 ± 0.014

Sequence: CGATAAATTA
- switch fluorescence ratio: 0.9971 ± 0.0044

Sequence: CGATAATGAA
- switch fluorescence ratio: 1 ± 0.029

Sequence: CGATACGGTG
- switch fluorescence ratio: 1.07 ± 0.035

Sequence: CGATACGTTG
- switch fluorescence ratio: 0.99 ± 0.011

Sequence: CGATAGATGT
- switch fluorescence ratio: 1 ± 0.024

Sequence: CGATAGTATT
- switch fluorescence ratio: 0.9854 ± 0.0063

Sequence: CGATATAGGA
- switch fluorescence ratio: 0.992 ± 0.011

Sequence: CGATATCGAG
- switch fluorescence ratio: 0.98 ± 0.051

Sequence: CGATATCGTG
- switch fluorescence ratio: 1 ± 0.019

Sequence: CGATATGATG
- switch fluorescence ratio: 1.01 ± 0.062

Sequence: CGATATGGGG
- switch fluorescence ratio: 1.01 ± 0.057

Sequence: CGATATGGGT
- switch fluorescence ratio: 0.9801 ± 0.0026

Sequence: CGATATTGCA
- switch fluorescence ratio: 1.02 ± 0.025

Sequence: CGATCCAGTG
- switch fluorescence ratio: 1.39 ± 0.061

Sequence: CGATGAAGGC
- switch fluorescence ratio: 1.07 ± 0.031

Sequence: CGATGATATT
- switch fluorescence ratio: 1.02 ± 0.053

Sequence: CGATGATCGG
- switch fluorescence ratio: 1 ± 0.016

Sequence: CGATGCACGG
- switch fluorescence ratio: 1.106 ± 0.0049

Sequence: CGATGCATGG
- switch fluorescence ratio: 1.71 ± 0.19

Sequence: CGATGCTACA
- switch fluorescence ratio: 1.06 ± 0.048

Sequence: CGATGGGATA
- switch fluorescence ratio: 1.03 ± 0.02

Sequence: CGATGGGCCT
- switch fluorescence ratio: 1.01 ± 0.024

Sequence: CGATGGGTCG
- switch fluorescence ratio: 1 ± 0.066

Sequence: CGATGGTGAG
- switch fluorescence ratio: 1 ± 0.047

Sequence: CGATGTGAGA
- switch fluorescence ratio: 1.04 ± 0.022

Sequence: CGATGTGCTT
- switch fluorescence ratio: 1.01 ± 0.024

Sequence: CGATGTGTGC
- switch fluorescence ratio: 1.17 ± 0.0054

Sequence: CGATGTGTGT
- switch fluorescence ratio: 0.991 ± 0.035

Sequence: CGATTAAGAT
- switch fluorescence ratio: 1.02 ± 0.021

Sequence: CGATTAAGGC
- switch fluorescence ratio: 1.003 ± 0.0026

Sequence: CGATTACTCC
- switch fluorescence ratio: 2.82 ± 0.089

Sequence: CGATTATTAT
- switch fluorescence ratio: 0.975 ± 0.031

Sequence: CGATTCGGGG
- switch fluorescence ratio: 1.01 ± 0.03

Sequence: CGATTCGGTA
- switch fluorescence ratio: 1.01 ± 0.042

Sequence: CGATTCTTTT
- switch fluorescence ratio: 0.979 ± 0.01

Sequence: CGATTGCTAG
- switch fluorescence ratio: 1.02 ± 0.058

Sequence: CGATTGGGGT
- switch fluorescence ratio: 1.02 ± 0.034

Sequence: CGATTTCGTT
- switch fluorescence ratio: 0.984 ± 0.013

Sequence: CGATTTGCCT
- switch fluorescence ratio: 0.9806 ± 0.006

Sequence: CGATTTGGGC
- switch fluorescence ratio: 0.982 ± 0.021

Sequence: CGATTTTGA
- switch fluorescence ratio: 0.969 ± 0.043

Sequence: CGATTTTGGA
- switch fluorescence ratio: 0.9941 ± 0.0078

Sequence: CGCAAAAAGT
- switch fluorescence ratio: 1.0219 ± 0.00086

Sequence: CGCAAAGAAG
- switch fluorescence ratio: 1.08 ± 0.02

Sequence: CGCACCATGC
- switch fluorescence ratio: 2.41 ± 0.073

Sequence: CGCACCCTTT
- switch fluorescence ratio: 1.093 ± 0.0056

Sequence: CGCACGGTAG
- switch fluorescence ratio: 1.05 ± 0.032

Sequence: CGCACTGTGG
- switch fluorescence ratio: 1.028 ± 0.0031

Sequence: CGCAGAGGCT
- switch fluorescence ratio: 1.06 ± 0.044

Sequence: CGCAGAGTGG
- switch fluorescence ratio: 1.01 ± 0.018
